Reference: patent publication US20030119733A1, “Compositions and methods for inhibiting hepatocyte invasion by malarial sporozoites” (New York University, priority 1992, published 2003)

B1: Falciparum-1: Same as Falciparum-2 minus most of Region II+ (P. falciparum residues 43-348) (protein)
chain: AGTNLYNELEMNYYGKQENWYSLKKNSRSLGENDDGNNNNGDNGREGKDEDKRDGNNEDNEKLRKPKHKKLKQPGDGNPDPNANPNVDPNANPNVDPNANPNVDPNANPNANPNANPNANPNANPNANPNANPNANPNANPNANPNANPNANPNANPNANPNANPNVDPNANPNANPNANPNANPNANPNANPNANPNANPNANPNANPNANPNANPNANPNANPNANPNANPNANPNANPNANPNKNNQGNGQGHNMPNDPNRNVDENANANNAVKNNNNEEPSDKHIEQYLKKIKNSISTEWSP
B2: Falciparum-2: fragment of P. falciparum CS protein with repeats and Region II+ (residues 43-391) (protein)
chain: AGTNLYNELEMNYYGKQENWYSLKKNSRSLGENDDGNNNNGDNGREGKDEDKRDGNNEDNEKLRKPKHKKLKQPGDGNPDPNANPNVDPNANPNVDPNANPNVDPNANPNANPNANPNANPNANPNANPNANPNANPNANPNANPNANPNANPNANPNANPNANPNVDPNANPNANPNANPNANPNANPNANPNANPNANPNANPNANPNANPNANPNANPNANPNANPNANPNANPNANPNANPNKNNQGNGQGHNMPNDPNRNVDENANANNAVKNNNNEEPSDKHIEQYLKKIKNSISTEWSPCSVTCGNGIQVRIKPGSANKPKDELDYENDIEKKICKMEKCSS

What was measured:
[1] = tested on: hepatocyte microvilli in the Space of Disse; assay: Electron immunomicroscopy of liver sections; type: binding, rat; conditions: MAb 2A10 and gold conjugate
Method: Rat or mouse liver tissue or hepatocyte subcellular fractions from Example 2 were fixed in PBS containing 1% glutaraldehyde (grade 1, Sigma, St. Louis, Mo.) and 4% paraformaldehyde (Kodak, Rochester, N.Y.), dehydrated in ethanol, and embedded in LR White (Polysciences, Warrington, Wash.). (Frevert et al., Infect. and Immun. 60:2349-2360, June 1992.) Normal human liver was embedded in Lowicryl K4M (Ted Pella, Redding, Calif.). Ultrathin sections were labelled by incubating them sequentially with 10-50 μg/ml CS27IVC, CSFZ (Cys), Falc-2, or Falc-1 for 30 min.; 15 μg/ml MAb 2A10 for 30 min.; protein A-gold 15 nm (PAG15, 1:30; Amersham, Arlington, Ill.) or goat anti-mouse IgG gold 10 nm (GAM10, 1:30; Amersham) for 30 min. Control specimens were incubated in the absence of CS and only with the gold conjugates. Photographs were taken with a Philips EM 301 electron microscope.
To identify the hepatocyte structures interacting with the CS, glutaraldehyde-fixed and LR White-embedded thin sections of rat liver were incubated with the recombinant CS polypeptide CS27IVC, mAb 2A10 and goat anti-mouse IgG-gold and analyzed by immunoelectron microscopy. Human liver tissue embedded in K4M was also labelled with CS27IVC followed by MAb 2A10 and protein A-gold.

[2] = Localization in organs after intravenous injection (light and electron microscopy); type: in vivo, mouse; conditions: 100 μg i.v., 5 minutes
Method: In other experiments, light and electron microscopy were used to localize CS in the various organs. The mice were injected i.v. with 100 μg of unlabeled CS27IVC or Falc-1 via the retroorbital plexus. The mice were exsanguinated five minutes after injection, the organs removed, rinsed in TBS, blotted dry, and then snap frozen in liquid nitrogen for light microscopy. For electron microscopy, the organs were cut into small pieces and fixed in a mixture of 0.1% glutaraldehyde and 4% paraformaldehyde.
Light Microscopy: The frozen tissue was embedded in Tissue Tek O.C.T. (Miles Inc., Naperville, Ill.) and cut into 5 μm sections. Sections were dried for 30 minutes, fixed for 10 minutes in 4% paraformaldehyde, and either used immediately or stored at 4° C. in PBS containing 1% BSA, 0.5% Tween-20. After blocking with the same buffer, the sections were incubated with mAb 2A10 conjugated to FITC, and examined in a fluorescence microscope.
Electron Microscopy: The fixed liver specimens were dehydrated in ethanol and embedded in Lowicryl K4M at −20° C. (Frevert et al., Infect. and Immun. 80:2349 (1992)). After UV polymerization, sections were cut with a RMC MT-7 ultramicrotome and stained by sequential incubation with 15 μg/ml mAb 2A10 and protein A gold 10 nm (PAG10) (1:30, Amersham, Arlington, Ill.). Cerami et al., Cell 70:1021 (1992). Control sections were strained only with the gold conjugate. […]

[3] = Solid phase binding assay, sulfatide; conditions: lipid dried into microtiter wells
Method: Solid phase binding assays: Thirty μl of lipids or steroids dissolved in methanol (20-250 μg/ml) were dried into wells of microassay plates (Cat.# 3911—Falcon—Oxnard, Calif.). The plates were then blocked with 1% BSA/PBS pH 7.4 (BSA/PBS) for 30 minutes. Wells were incubated with recombinant protein (or with parasite extract) in PBS/BSA for 1 hour, washed 3 times with BSA/PBS, incubated for 1 hour with monoclonal antibodies 2F2 or 2A10 in BSA/PBS, washed 3 times, and then incubated with (10^5 cpm/well) ^125I protein A (Amersham Corp., Arlington Hts., Ill.). In the case of the P. berghei CS protein, wells were incubated with ^125I labelled mAb 3D11. Wells were washed again and the bound radioactive protein was counted in an LKB gamma-counter (model #1260, Pharmacia, Inc., Gaithersburg, Md.). For inhibition assays, the recombinant proteins were mixed with dilutions of the various polymers in BSA/PBS, the mixture was loaded into the wells of the microtiter plates, and the binding assay performed as above. See also, Roberts, et al. J. Biol. Chem. 260:9405-9411, 1985.
1.4 nmol of sulfatide (open squares), cholesterol-3-sulfate (closed triangles), galactocerebroside I (closed circles), galactocerebroside II (open circles) and cholesterol (open triangles) were evaporated into microtiter wells and then incubated with serial dilutions of Vivax-2. […]

| Molecule | gold labelling of liver sections [1] | staining of kidney or other organs with FITC-labeled mAb 2A10 [2] | staining of liver with FITC-labeled mAb 2A10 [2] | binding to sulfatide [3] |
| --- | --- | --- | --- | --- |
| B1 | negative | No staining | No staining | did not bind |
| B2 | essentially the same results but with lower staining intensity | – | – | specifically bound sulfatide |
